Experimental data published in the DeepSol protein solubility set.

Experiment: soluble on expression in E. coli; label from the status in PepcDB or PDB records

Sequence	soluble on expression in E. coli
MPLVVNVLSTPLNAQPTRTAGFTLPEMMLALSFGSLIALSTAQVLPKLSQQISVLQQHYRLELVMNQAMGAMEKDLRRAGFCHGKCQGEAITIEHYLGETAHSCLIVAYDLNCNGRWEGAKHQESEYFGYRLRNKALESQRGELNCHGRGWEKLFDPRDVTVTHFSVTPLSGQLFKLRLVGHKTGNPAIHHQVTYLIRGNNV	not soluble
MPMLDMIVSRVITLLQGRESRSLRVTQAELAAGLSKTVYLHNAQLILPLPDLAFIQSLVAYDHHHPAVSTVLEAWAYGVRLHLQIHQQLLTALPLRELRRLPVTLTDHMSTPVKLAAAAGLSYASVIHWHDCWVLLEKQTLITALAREVMERQNIKLIWQE	not soluble
MPMNTSKQSNTVKQLITSLDNFEPSRLTIKDFQEGKGVGPKMAFLRYNHPSLGEDTSLMLQTPWITLTSGGIPRYNEQYHKNDKDRAYLRLPLEEGTDFFNKITALDEQFSSDEFKKEKFGKLYKKYSMYPCVKITEQEEGDTRDPLPPSLKLRFSLVWNEEDKDACEINTQVFTSKMEDGKRTRTPVPVSSLKDMESLVRLGAKLRLIVRPVSAWMNPKKEYGIKWKIQKMEVEPSTAGNALMKEFYETDAFIDSDDEEDVELPPSATGKKTSTKTTKEDDEDEDDDDDDDDDDVGEKSEDSDEASDEESDEESDEDSEEDSPDIPVRKSKGKGKSKGLDL	not soluble
MPMPSEKTLVIIPTYNELENLPLITGRVRKANPNVDILIVDDNSPDGTGEAADALAASDSHIKVLHREGKGGLCGAYVAGFQWGLERDYTVLCEMDADGSHAPEQLHLLLAQVDNGADLVIGSRYVPGGKVVNWPKNRWVLSKGGNIYISLALGAGLSDMTAGYRAFRREVLETVDLNELSNAGYIFQVDMAWRVIQLGFDVREVPITFTEREIGESKLDGSFVKDSLLEVTKWGIHHRKEQITNLYTESSRLIRHEISSFRKKHLI	not soluble
MPNDLKKELRELKETLEYLKKSFEVISQLAQAYIRLLNVYAEYGDLGIDVVIPEIKHDPIARDIVKILFDLRRANVSQIARELKGRRGKASRNTVRKKLKELEKLGVVKEVPGERGSVYTLSREVVKKWLDLIGIPINLLLEHHHHHH	soluble
MPNEQKRFVTGPAGRLETVVTLPEGAPRGLAIVAHPHPLYQGSMDNKIVYILSRAFIEQQYITVKFNFRGVGASEGSYAEGKGEIEDVMAVTQAMREQYDTGPEPLPLTLAGFSFGGAVQAHVAQQLKPSRLVLVAPSVERLQAPPVVDHARHILVIQGDQDTIVPLQSILNWAAPQTLPVTVIPGAEHFFHGKLHVLKNVILQSCSISQAATSLYP	not soluble
MPPKLRNFDKSMEKYTDVVLVVKQERFYVSRAILSEHCTYFQSLFCGDSNYQEHIISDVEPQDFQKFLEVVHGEPAIFEATVQKILPLAQKFGSKTVLQKCERFLITISTVRLSTKWNLAKQYGLDELQAHCKLEFKTAQIVRKNPQPEPKSLAYSDKFIFDHSFEKVDGLAEGDMRRSQPITHLDFTWTIYITRKNQHLRVSLCCGKAHLTSDWTVRADFKMTLTAKGSPDLVSDTKGFFHLDSEKNFYWELGQEVEWDEIRDKCLADGKLEVETRVRIVKIRELPVEEFKPPRIVTVNAVKSYEGVLSDYIRVTPLTQQAKTSAPAETPDLQTPPRQQASAKPQASPAKSAGAPQLPQKVPLFPSGGAPSSPSAPEAPSEPPPPKIYPTLGANAPPAPPVQGKKFILKNVFGNVEAMKCHTAMACQKAVAYDFEWNLIISQKNNRLHVSLCCSKSNVTSEFRILADFELIIAGKNGGRPLKSKTNGCFNIEKTKNSSQELGQDVEWSTIVYDYMVDGRLTVEAHVNITRVTCLDAPKFKKLRNFDATGNSWDVMLIVAGQRFFVLKEILISNSARFKNIISKINFTAAPSTEIKLPDSSADHFQNFLEACYGDPSINDDTVHGILKIAQSYEAAGIVKRCEEYVIKYSKKTLEQKEKLAKHHNLKTLKAHCDYWKSRRKCC	not soluble
MPPSLRKAVAAAIGGGAIAIASVLITGPSGNDGLEGVSYIPYKDIVGVWTVCHGHTGKDIMLGKTYTKAECKALLNKDLATVARQINPYIKVDIPETMRGALYSFVYNVGAGNFRTSTLLRKINQGDIKGACDQLRRWTYAGGKQWKGLMTRREIEREICLWGQQ	soluble
MPPTGIFFNVNGKDIKEENVDPELTLAYYLRNKLGLRGTKLGCEEGVCGSCTVVLGTWDDSLNKAVYSAVNACLVPLFHVHKTFVITVEGVGSRDKIHPIQDRMARGHAVQCGFCSPGFVMSAYALLRNHPNPTIEQINAAIRANLCRCTGYRPILEALYSFSSSGGGCCGGKKAGAGCCKDLSSEDEAYEKLTSFNDFPEYDPSQEIIFPPSLRIFVDSENPVTLKGDRIELLLPKSIEQFKEFKKDRTVISSGLITRFIATRNPKEFSQKWITTKYVKEFNEVIENPETVVIGAAVNIQKMSDILSRSLSQNIGKEVDAFIKKFSSPQIANFATWTGGIVSGAKSSISVSDLLLLFNVLNAKLTLLTDSGDLTQVNIEEFVEKKLFATNTIVNTVFSSSITGQLFCLKLGETSEQDSTSFNFAALVGNNISRIFVGLGGPPKRLTSLEEHIFALKNLDVPDLCKTSGMGENKNIKIALTRLSKFMKNVEKTAETVDGLNYLQYFKPTERKSVGRPLANYFNERAITGEALYVNDIQTYNPVHLGFVLSTVPHAEILSIDATEALKLEGVVGFFGASDVPGNNSPGLQISNMNLPDDATIFADKKVESVGQVVGVIAANDVLLARRAAKLVKLEYKELPALVELKDAIVAKSLLGKVRHFGKSEYLVNESLVHSYKVLEGESSLGSQEHFYLETQSSLNYRIVHCSTQGTSFTQLMVAETMKIPAHKIIVKTKRMGGAFGGKLNNASWIACICSVVAKKLNRPTYGVGINSDGKVQGIHHQAWLNGGWSKDHTEGVTMVMGQFVDDVYNMGTVRYDGYPVKTNTNSNTAFRGYGNPQAKLVSEGVMRRIAREVGKSTEEVKKLNFAFEGEKRYLSGNIYSDAHIECWEYCTRWSDFEKRKETIENFNKTSKIVKRGIAMSSVRLALSHPGPPGHGVASLMINLDGSIQLSIGGTEMGQGLNQKMLQVCSEALKRPIDTITIVDCSTDKITNAPETGASHNADTNGLAVLACCERIMSRLQPIIDKNDGDWEKSIRDAYGAYVPLQCTEYGSVDREKLSIGEFEYPYNTTGACAVEMEVDTMTGYNRLLRVDIVMDVGESLNPAIDIGQIEGAFMQGYGLVTCEKITFNKETGQLNQNSAGQYKIPKSSDVPKDFRVKLLGINKANGAKVYSSKGIGEPPLMMSCGAVHSCIMNCIDDWRKENGIDKFVDTISPLSADKIQELCSCNN	not soluble
MPRLVVNSIYASGAQYQGSSSKLYVNVSNLGTENAYNVLIQVYVNGKVYGSTTVSEIKAGASDNVSINWVPPTSGKVSVYATASVNSEPRSFVTAGALTQTVSVNPLEHHHHHH	not soluble
MPSKLALIQELPDRIQTAVEAAMGMSYQDAPNNVRRDLDNLHACLNKAKLTVSRMVTSLLEKPSVVAYLEGKA	soluble
MPSKLFSRRSFVTTACAGLAALALPLPAVALTEARAASLVNEVVTEINRVIASGKSENAMIRDFEKLFVRYGDVPIMARYALGPDARTASPAQLKSFTQAFQGYISRKYGKRFREFIGGEVTVKTARKIKAGYEVKTSVKLQGQAPFDVTFLVSDKSGKDKFFNMFIEGVNLLLTERTEIGSMLDRRKGDLNALIRDLASAGLEHHHHHH	soluble
MPSSPAERYAQALASGQFMPDEAQAQAVQELERVWQELLSRYKASKKAFRRFRRQTSPKGVYMWGGVGRGKTWLMDQFYDSIPFRRKTRMHFHHFMQHVHRELNKLSGQRNPLDLVADQIYKDAVIICFDEFFVSNVTDAMILSDLFQKLFNRGVTLVATSNIAPDGLYKNGIHRDRFLPTIELVQKNCTILNVDAGVDYRLRVLKQAQLFKHPLTDDAKIWMSQRFSAITRSQIVSQQPITINNRVVETLGHTEDVLWCEFSELCLKPRSPADFIEIANIYNTVLVSNVPHLTDYLSEGTRRFIYLVDEFYDRGVKLLLTSQDSIIEIYEGEKLAFEIERTRSRLLEMQSDEYLHSLEHHHHHH	soluble
MPSSTSSSLENLSVSVCAAGDSAAYQRNSVFGDDVVIVAAYRSPLCKAKRGGLKDTYPDDILAPVLKALIEKTNINPAEVGDIVVGSVLGAGSQRASECRMAAFYAGFPETVPVRTVNRQCSSGLQAVADVAAAIKAGFYDIGIGAGLESMTANPMAWEGSVNPKVKTMAQAQDCLLPMGITSENVAQKFSITRQEQDQAAVGSHRKTAAATAAGRFKDEIIPIKTKIVDPKTGDEKPVTISVDDGIRPGTSLADLAKLKPVFRKDGSTTAGTSSQVSDGAGAVLLMKRSIALQKGLPILGVFRTFAAVGVPPSIMGIGPAVAIPAAVKAAGLQIDDIDLFEINEAFASQFVYCQKKLEIDPQKINVNGGAMAIGHPLGATGARCVATLLHEMKRRGRDCRFGVVSMCIGTGMGAAAVFERGDACDELCNAKAKHHHHHH	soluble
MPTLKYLPHYPPALVQQAQALFDSGELGALLRSKYPDGHDVQTDKALYQFVSALKQRHLKNAPLPAKVLYDNQQHPLKGTLGTNTTISRVQGGRLKSKSEIRIASLFRELPLPFLQMIVVHELAHLKVRDHDKAFYQLCCHMQPDYHQLEFDLRLWLNWREQRRNLEHHHHHH	soluble
MPTPARKTQKGGRKRRVNGVEEEILYIIGFFQDDSSIGLSTFFTKFCILYQDSKSNFRVLNLEMFSPENLNARKKMSQEKDTPSH	not soluble
MPTPLTHWSRWMQTASRFVDEYPNFSVLPPPPLRAPPPHSKISDRRSV	not soluble
MPTPPVSVLVAQMGEGPAPLYARVKQMIIQQIDNGSWPPHHRVPSESELVNELGFSRMTINRALRELTAEGLLVRMQGVGTFVAEPKGRSALFEVNNIADEIAARGHQHSCQVITLAEEAAGSERALALDMREGQRVFHSLIVHFENGVPVQIEDRYVNAAIAPDYLKQDFTRQTPYAYLSQVAPLTEGEHVVEAILAEPEECTLLQIDRGEPCLLIRRRTWSGRQPVTAARLIHPGSRHRLEGRFSK	not soluble
MPTVSLGRFQKEDGINVPDWIDVVRRPSGGRALLHHREITYCLAVPKKINFGKLSVLEFHRLVHSLIRDALVEAGLHAELSSKRRGNTALCFDAPSRYEIVINGVKVVGSAQFRTAESIVEHGSIVLKQDIDL	soluble
MPVLTSGQQERKSKQRKIRNSEYYDMEGTFDRLYAESKKDKTFNHLMEIIESEENIKLAYRTIKKNTGSDTSGVDKRTIADLAKLSEEEYVRLIRKQFSNYHPGPVRRVEIPKPNGKTRPLGIPTIVDRIVQQCILQVMEPICEAKFSENSNGFRPNRSAETAIAQCMRLIQVQHLYHVVDLDIKGFFDNISHTKLIRQIWALGIRDKKLLCIIKEMLKAPVVLPNGEKTYPARGTPQGGILSPLLANIVLNELDWWIASQWEEMPTKTKFKTRSNAQGTEIKSHAYRALRRSRLKEMHAVRYADDFKIFCATHEDAVRAYKATELWLKDRLGLEISPDKSKVVNLKRQYSDFLGFKLKVRKKGKKYVVRSHMSDKAYKKAHEKVSEEVKKLAYSSDDNAQFMQLQKYNSVVAGLHEYYCISTEVSHDFSRLAFSINKQLRNRLKGDLSKKGQLRNGFIKEKYGASRQMRFLHGRPVVPLGYVQSKNAQHKRKSINKYTVKGREQIHKNLAIDTATMLWLMRNPVKGRTIEYADNRISLYAAQYGKCAVTGIPMNSHDIHCHHKVPVSNGGSDEYANLILVSKAVHILIHASSEPTIEKYLKSLNLDNKQIEKLNKLRSMAEMPPIIL	not soluble
MQADFNRPVLAVDTGTSYLSLALRADGETCLFHQEVGSRQSALILPEIRTLFHDAGITAADLGAIVYAKGPGAFTGLRIGIGVAQGLATPFDTPLIGVPSLDAAASLPPPQSCILAAADARMGEVFYAWFDTLNRRRLSDYQVGRAADIRLPEGCAFSDGIGNAFALENRPPFSGKPDMPTAADFLNLAAEGGFPAVAAAHAELLYVRNKIALTAKEQAERRARLLEHHHHHH	not soluble
